# Target: HLA-B*44:02 (Homo sapiens, UniProt P01889, A223V/A65T/A93T/A95T/D201E/D98Y/E176V/E187L/E204Q/E69K/G107R/H137Y/K202T/L105A/L119I/N104T/N87E/Q56L/Q94N/R106L/R155S/R180D/S101N/S121R/S35A/S48T/T118I/V36M/W191S/Y140D/Y91S)
# Experiment: MHC binding assay, UV-ligand exchange with β2m ELISA, HLA-B*44:02
# Conditions: binding to HLA-B*44:02, UV-ligand exchange
# Text: Candidate peptides for T cell based therapies according to the present invention were further tested for their MHC binding capacity (affinity). The individual peptide-MHC complexes were produced by UV-ligand exchange, where a UV-sensitive peptide is cleaved upon UV-irradiation, and exchanged with the peptide of interest as analyzed. Only peptide candidates that can effectively bind and stabilize the peptide-receptive MHC molecules prevent dissociation of the MHC complexes. To determine the yield of the exchange reaction, an ELISA was performed based on the detection of the light chain (β2m) of stabilized MHC complexes. The assay was performed as generally described in Rodenko et al. (Rodenko et al., 2006).
# 96 well MAXISorp plates (NUNC) were coated over night with 2 ug/ml streptavidin in PBS at room temperature, washed 4× and blocked for 1 h at 37° C. in 2% BSA containing blocking buffer. Refolded HLA-A*02:01/MLA-001 monomers served as standards, covering the range of 15-500 ng/ml. Peptide-MHC monomers of the UV-exchange reaction were diluted 100-fold in blocking buffer. Samples were incubated for 1 h at 37° C., washed four times, incubated with 2 ug/ml HRP conjugated anti-β2m for 1 h at 37° C., washed again and detected with TMB solution that is stopped with […]. Absorption was measured at 450 nm. Candidate peptides that show a high exchange yield (preferably higher than 50%, most preferred higher than 75%) are generally preferred for a generation and production of antibodies or fragments thereof, and/or T cell receptors or fragments thereof, as they show sufficient avidity to the MHC molecules and prevent dissociation of the MHC complexes.
row,"Peptide exchange (MHC class I binding score, peptide exchange yield)",Substance
1,“+++” (>50 = +++),135 (NEIKVYITF; listed as Homo sapiens) [compound 135]
2,“++++” (>75% = ++++),136 (AEYKGRVTL; listed as Homo sapiens) [compound 136]
3,“+++” (>50 = +++),137 (GELGGSVTI; listed as Homo sapiens) [compound 137]
4,“++” (>20% = ++),138 (SQAPAARAF; listed as Homo sapiens) [compound 138]
5,“+++” (>50 = +++),139 (RENQVLGSGW; listed as Homo sapiens) [compound 139]
6,“++” (>20% = ++),140 (EYDLKWEF; listed as Homo sapiens) [compound 140]
7,“+++” (>50 = +++),141 (REYEYDLKWEF; listed as Homo sapiens) [compound 141]
8,“++” (>20% = ++),142 (TEIFKEHNF; listed as Homo sapiens) [compound 142]
9,“+++” (>50 = +++),143 (YEYDLKWEF; listed as Homo sapiens) [compound 143]
10,“+++” (>50 = +++),144 (TEGKRYFTW; listed as Homo sapiens) [compound 144]
11,“+++” (>50 = +++),145 (AEPLVGQRW; listed as Homo sapiens) [compound 145]
12,“+++” (>50 = +++),146 (SESKTVVTY; listed as Homo sapiens) [compound 146]
13,“++” (>20% = ++),147 (KEVPRSYEL; listed as Homo sapiens) [compound 147]
14,“++” (>20% = ++),148 (REYNEYENI; listed as Homo sapiens) [compound 148]
15,“+++” (>50 = +++),149 (SEKETVAYF; listed as Homo sapiens) [compound 149]

# The next lines start with the substance.
row,Substance,"Peptide exchange (MHC class I binding score, peptide exchange yield)"
1,122 (KELPGVKKY; listed as Homo sapiens) [compound 122],“++” (>20% = ++)
2,123 (EENPGKFLF; listed as Homo sapiens) [compound 123],“+++” (>50 = +++)
3,124 (SESLPKEAF; listed as Homo sapiens) [compound 124],“++” (>20% = ++)
4,125 (SESTFDRTF; listed as Homo sapiens) [compound 125],“+++” (>50 = +++)
5,126 (EENKPGIVY; listed as Homo sapiens) [compound 126],“++” (>20% = ++)
6,127 (TEYPVFVY; listed as Homo sapiens) [compound 127],“+” (>10% = +)
7,128 (GENDRLNHTY; listed as Homo sapiens) [compound 128],“++” (>20% = ++)
8,129 (GEGAYGKVF; listed as Homo sapiens) [compound 129],“++++” (>75% = ++++)
9,130 (EEEHGKGREY; listed as Homo sapiens) [compound 130],“++” (>20% = ++)
10,131 (EEFETIERF; listed as Homo sapiens) [compound 131],“++” (>20% = ++)
11,132 (GELPAVRDL; listed as Homo sapiens) [compound 132],“++” (>20% = ++)
12,133 (AEHNFVAKA; listed as Homo sapiens) [compound 133],“+++” (>50 = +++)
13,134 (SEYADTHYF; listed as Homo sapiens) [compound 134],“+++” (>50 = +++)

# From US11135246B2, “Peptides and combination of peptides for use in immunotherapy against leukemias and other cancers” (Immatics Biotechnologies GmbH, priority 2017, dated 2021)
